In paper PMC7367177:

Target: ItaT(G115D) mutant protein (E. coli HS)
Test: crystal structure

ItaT(G115D) mutant protein (enzyme)
stoichiometry N: 2
